The RNAGym collection of RNA variant scans (doi:10.1073/pnas.2313332121)

B1: TPR t1 (parent)
chain: GACCAAUCUGCCCUCAGAGCUCGAGAACAUCUUCGGAUGCAGAGGAGGCAGGCUUCGGUGGCGCGAUAGCGCCAACGUCCUCAACCUCCAAUGCAUCCCACCACAUGAUGAUGCCUGAAGAGCCUUGGUUUUUUG

Variants of: B1
Assay: polymerase ribozyme fitness, log enrichment relative to wild type (log ratio); higher = more active; in vitro selection for triplet polymerase activity
Summary of the method: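 For each subunit of a heterodimeric triplet polymerase ribozyme, a mutant library was built by PCR and transcribed, then taken through a single in vitro selection round in triplicate. Selection involved annealing to a biotinylated primer, the partner subunit and triplets, incubation frozen at −7 °C, gel excision of extended constructs, capture on streptavidin beads and RT-PCR. Genotypes were retained after Illumina sequencing of inputs and outputs only with ≥10 input reads and ≥1 read in each output. Fitness is defined as the logarithm of a genotype's enrichment relative to wild-type enrichment, using inverse-variance-weighted averages across replicates, with the logarithm taken to base 2.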

Row | Variant | polymerase ribozyme fitness (log ratio)
1 | G58C U109G G117A | -5.76
2 | G71C G120A | -0.0968
3 | C12U G35A G42U U112C | -5.14
4 | C34G G44A | -6.88
5 | C22G G42C G61U C89U | -5.61
6 | A43C A118U | -1.82
7 | U9C G69C | -0.746
8 | C31G A50C U112A | -6.45
9 | C13G A41C | -3.32
10 | G51A G120U | -2.59
11 | C20U G57A | -1.75
12 | G10U C13A C72U U109A | -6.62
13 | U21A A37C A46U G77A C89U U131C | -5.66
14 | A83C G120A | 0.209
15 | G117C G127C | -5.04
16 | A27G G48C G71C G127C | -5.17
17 | C34U A50U C73U C115A A119G | -4.5
18 | C28A C79A A111C U112G | -6.04
19 | C56U G127A | -1.2
20 | A83C U106A | 0.162
21 | A74G U96G | -0.295
22 | G77U U92G C124U | -1.84
23 | A84U C114A U131A | -0.993
24 | A46U C73U | -1.08

Row | Variant | polymerase ribozyme fitness (log ratio)
25 | C13G U14A C64U C86A | -3.76
26 | A5C U14C U54A C88U C124A | 1.25
27 | A16U G45A G61U C82G | -1.81
28 | C70A C89G | -3.96
29 | C12U C53A G58C C82G G128A | -2.46
30 | C11G G51U C62A G71A C89U C97U | -6.66
31 | C79A C88U | -1.33
32 | C40U G120C | 0.116
33 | A29C U54C | -1.78
34 | C53G C56A | -0.204
35 | C15G A27G | -4.15
36 | C8A C12G C64A C123A | -6.53
37 | C11U C12A A41C C56G | -2.42
38 | C53U C70A A84C A100U | -3.17
39 | G47C G71U | -1.65
40 | C114G G117A | -5.27
41 | A41C G52A C82G C97U C101G A118U A121U | -2.61
42 | C80G A121U | -3.78
43 | A29U C72U A84C U87C U112C | -1.31
44 | G52C C70A G117C | -5.92
45 | G61U C114G | -1.85
46 | C3U C11A G120C | 0.399
47 | C13U G48U | -1.37
48 | U81G C104U G122A | -4.33

Row | Variant | polymerase ribozyme fitness (log ratio)
49 | G61A A74U G110U A118G | -4.67
50 | U130G U132A | -1.3
51 | G10U C13G G45U C56A U87A C94U C124G | -0.526
52 | G60U C123A | 0.751
53 | A41U C53G G63C C72U G77A | -3.7
54 | G61A C88U C89A | -1.82
55 | A18C A37C G127U U129A | -3.43
56 | C22G U87A C114A | -2.89
57 | C13A A74G C86A C101G | -4.34
58 | U54A C70G C88U | -3.24
59 | C34A G77U C98A | -2.63
60 | C104A | -1.45
61 | G39U A90G C102A G117U A121C | -5.4
62 | C56A C79A A95C C101U U129A | -4.76
63 | A2G U32C C40G C49A | -1.76
64 | C53G U92G A105U | -6.44
65 | C8U C34G | -5.47
66 | G10C C64U C79U A105G | -3.38
67 | A27G C49A U78C | -2.36
68 | C72G U129G | -1.34
69 | G47A G120C U130C | 0.162
70 | G69C C70A A91C | -7.25
71 | C22U U54G | -3.24
72 | G63A A121U | 0.59

Row | Variant | polymerase ribozyme fitness (log ratio)
73 | G52C C56U U78G G128C | -2.87
74 | C8A G63A A83C C86U | -0.491
75 | C12U A16U C20U G71C C114A G127U | -3.54
76 | U54G C89U | -0.559
77 | C8G G71A C73A C94U C104U | -1.01
78 | C114G G120A G135A | -4.92
79 | C56G G63U | -4.87
80 | U87G G117A | -1.13
81 | C88U C97U | -1.02
82 | G69U C79U C80U U116C | -0.478
83 | A2U A43G G45A C72G A84G A111U | -6.25
84 | C53G G71U | -0.129
85 | C40U G60U G110A | -1.76
86 | G39A C56A U130A U131C | -1.5
87 | C49A C72G C89G G113U | -5.04
88 | A6C G52U C70G A74U G120C | -5.83
89 | G45U U59A C101U | -0.987
90 | C79U G113A | -1.38
91 | A2G G42A U54G C80A U112A | -6.02
92 | U7C G69A | -2.74
93 | C82A C94U | -0.596
94 | G45U G60A C82G C85G G117A | -3.09
95 | A2G G52A C99U | -3.53
96 | C22G C64U | -2.83

Row | Variant | polymerase ribozyme fitness (log ratio)
97 | G58U G61A U131G | -0.481
98 | G36C G44A G71U A75G C89A | -4.65
99 | C12G A43U A75U C124G | 0.348
100 | A90G U126A | -1.39
101 | A43C C72U A100U U130G | -4.41
102 | A74G G117U | -2.41
103 | C31U U81C G120U | -6.22
104 | C3G C28U G61U G120C U125G | -4.18
105 | C13U C80U A84C C124U | 1.02
106 | A6G G48A G52C C85G U112C | -0.453
107 | U106A U112G G117C | -5.9
108 | U14G G47C C85G G117A | -5.3
109 | G51U C82U C85U C94U | -2.49
110 | C53U C56A | -0.566
111 | G48A C64A | -6.92
112 | C13U C72U U129G | -0.856
113 | A37U U54A G61C U109C | -7.14
114 | C11U A43G | -2.11
115 | U78C U92A | -3.1
116 | U38A C101G G120C | -2.43
117 | U9G G61U G77A C97G U130C | -5.47
118 | C3G C11A C12U G58C C62U | -4.45
119 | U21C A37U | 0.0886
120 | C28A C73A | -4.02

Row | Variant | polymerase ribozyme fitness (log ratio)
121 | A46U A74C C88G | -4.4
122 | C40A G48A C70U | -2.07
123 | C3G G71C A90U A95U U112A | -3.23
124 | U14G G71A | -1.59
125 | C15U G51U G60A | -5.07
126 | A37G G57C G58U G120U | -0.432
127 | C8A G122A | 0.24
128 | G60C U87A C101U G117A U132A | -1.89
129 | C56G G69C | -4.54
130 | C3U | -0.284
131 | U54A U116G | -1.91
132 | C64G A121C | -5.13
133 | U78C C85G U129C | -2.13
134 | C8G A16C C62U C94A U112G U130C | -1.66
135 | A90C U106A | -1.42
136 | C56U G135A | -0.436
137 | C11A A37C A50U | -2.75
138 | C101G C123U | -0.756
139 | A2C G61A C94U | -0.931
140 | U14G C73G C82A | -3.08
141 | C12A C82A | -0.699
142 | G51U C79A U87C U106A | -2.68
143 | C8U G61A C70U U87G C89G | -5.05
144 | C13U C34G U133A | -4.86

Row | Variant | polymerase ribozyme fitness (log ratio)
145 | G36C G58C C101G A111U | -5
146 | C28U C56G C73A | -4.7
147 | C4G G63U G120U G122U | -1.51
148 | A26U C72G C97G G117U U125A | -6.79
149 | C28U G63U G77A C94A U112C | -6.92
150 | G36U G110U G120A | -2.35
151 | G61A G77U | 0.142
152 | C12A C73A | 1.15
153 | C13A C49U U87G C123A U131G | -0.403
154 | A29C A37C C53A G110U | -5.11
155 | C12G G36U G61U A111C | 0.246
156 | C4U U9G U54C C76A | -0.732
157 | A2G U78A | 0.0128
158 | A26U G36C | -4.29
159 | G52A C72U U125A G128C | -3.74
160 | C20U G77A U87A G110A | -4.79
161 | C73U C115A | -0.495
162 | C11G | 0.294
163 | U54A C56U U133A | -0.112
164 | U9C G58A A100U | -0.581
165 | C11A G60U A83U | -2.13
166 | U7C A91U C94G | -2.67
167 | U7C G135C | -0.63
